Assay results as given in the supplement of paper PMC9112550, “Optimization of the antimicrobial peptide Bac7 by deep mutational scanning” (BMC Biology, 2022).

Tested on: Escherichia coli TOP10
Assay: shrunken log2 fold change of peptide-encoding DNA abundance (4.5 h post-induction vs induction); higher = less antimicrobial activity (less host growth inhibition)
Settings: time post-induction: 4.5 h; library: site-saturation at positions 5, 18, 19, 20
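Also: peptides expressed intracellularly from a pBAD plasmid library in pooled LB shake-flask culture, induced with 0.3% L-arabinose, DNA abundance read by NGS, three biological replicates, DESeq2 with apeglm shrinkage.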

Row | Sequence | shrunken log2 fold change
1 | RRIRMRPPRLPRPRPRPPPHPRP | 1.62
2 | RRIRMRPPRLPRPRPRPPPLPRP | 1.58
3 | RRIRMRPPRLPRPRPRPPQDPRP | 1.24
4 | RRIRMRPPRLPRPRPRPPSSPRP | -0.0366
5 | RRIRMRPPRLPRPRPRPPTHPRP | 0.696
6 | RRIRMRPPRLPRPRPRPPTQPRP | 0.785
7 | RRIRMRPPRLPRPRPRPPVFPRP | 0.704
8 | RRIRMRPPRLPRPRPRPPVNPRP | 0.648
9 | RRIRMRPPRLPRPRPRPPVTPRP | 0.673
10 | RRIRMRPPRLPRPRPRPPWKPRP | 0.567
11 | RRIRMRPPRLPRPRPRPPWMPRP | 0.537
12 | RRIRMRPPRLPRPRPRPQCLPRP | -0.108
13 | RRIRMRPPRLPRPRPRPQEMPRP | -0.0105
14 | RRIRMRPPRLPRPRPRPQEYPRP | -0.0485
15 | RRIRMRPPRLPRPRPRPQGGPRP | 0.631
16 | RRIRMRPPRLPRPRPRPQHCPRP | -0.458
17 | RRIRMRPPRLPRPRPRPQHGPRP | 0.0121
18 | RRIRMRPPRLPRPRPRPQHHPRP | -0.0825
19 | RRIRMRPPRLPRPRPRPQLMPRP | 0.0471
20 | RRIRMRPPRLPRPRPRPQLQPRP | 0.165
21 | RRIRMRPPRLPRPRPRPQNAPRP | 0.0821
22 | RRIRMRPPRLPRPRPRPQPDPRP | 0.658

Row | Sequence | shrunken log2 fold change
23 | RRIRMRPPRLPRPRPRPQPFPRP | 0.211
24 | RRIRMRPPRLPRPRPRPQQYPRP | -0.017
25 | RRIRMRPPRLPRPRPRPQRDPRP | 0.0785
26 | RRIRMRPPRLPRPRPRPQRHPRP | 0.348
27 | RRIRMRPPRLPRPRPRPQSVPRP | 0.0409
28 | RRIRMRPPRLPRPRPRPQTKPRP | 0.205
29 | RRIRMRPPRLPRPRPRPQVCPRP | 0.0261
30 | RRIRMRPPRLPRPRPRPQVMPRP | 0.0337
31 | RRIRMRPPRLPRPRPRPQWTPRP | 0.0242
32 | RRIRMRPPRLPRPRPRPRATPRP | 1.57
33 | RRIRMRPPRLPRPRPRPRAVPRP | 0.989
34 | RRIRMRPPRLPRPRPRPRDCPRP | 0.288
35 | RRIRMRPPRLPRPRPRPRDFPRP | 0.83
36 | RRIRMRPPRLPRPRPRPRDHPRP | 0.324
37 | RRIRMRPPRLPRPRPRPREEPRP | 1.41
38 | RRIRMRPPRLPRPRPRPRFHPRP | 0.142
39 | RRIRMRPPRLPRPRPRPRGFPRP | 0.045
40 | RRIRMRPPRLPRPRPRPRGNPRP | 0.37
41 | RRIRMRPPRLPRPRPRPRHKPRP | 0.402
42 | RRIRMRPPRLPRPRPRPRHTPRP | 1.15
43 | RRIRMRPPRLPRPRPRPRILPRP | 0.0948
44 | RRIRMRPPRLPRPRPRPRISPRP | 0.395

Row | Sequence | shrunken log2 fold change
45 | RRIRMRPPRLPRPRPRPRKLPRP | 0.857
46 | RRIRMRPPRLPRPRPRPRLNPRP | 0.305
47 | RRIRMRPPRLPRPRPRPRLQPRP | 0.417
48 | RRIRMRPPRLPRPRPRPRMAPRP | 1.38
49 | RRIRMRPPRLPRPRPRPRMHPRP | 0.118
50 | RRIRMRPPRLPRPRPRPRMWPRP | 1.04
51 | RRIRMRPPRLPRPRPRPRNIPRP | 0.0054
52 | RRIRMRPPRLPRPRPRPRPNPRP | 0.903
53 | RRIRMRPPRLPRPRPRPRPSPRP | 1.12
54 | RRIRMRPPRLPRPRPRPRQHPRP | 0.47
55 | RRIRMRPPRLPRPRPRPRQVPRP | 0.388
56 | RRIRMRPPRLPRPRPRPRTGPRP | 0.561
57 | RRIRMRPPRLPRPRPRPRTHPRP | 0.28
58 | RRIRMRPPRLPRPRPRPRTKPRP | 1.21
59 | RRIRMRPPRLPRPRPRPRVRPRP | 0.921
60 | RRIRMRPPRLPRPRPRPRWLPRP | 0.459
61 | RRIRMRPPRLPRPRPRPRWQPRP | 0.146
62 | RRIRMRPPRLPRPRPRPRWTPRP | 0.548
63 | RRIRMRPPRLPRPRPRPRYMPRP | -0.212
64 | RRIRMRPPRLPRPRPRPSAEPRP | 2.7
65 | RRIRMRPPRLPRPRPRPSCDPRP | 0.444
66 | RRIRMRPPRLPRPRPRPSCMPRP | -0.0641

Row | Sequence | shrunken log2 fold change
67 | RRIRMRPPRLPRPRPRPSCSPRP | -0.0918
68 | RRIRMRPPRLPRPRPRPSDKPRP | 0.0839
69 | RRIRMRPPRLPRPRPRPSDSPRP | 0.0495
70 | RRIRMRPPRLPRPRPRPSDTPRP | 0.232
71 | RRIRMRPPRLPRPRPRPSEFPRP | -0.143
72 | RRIRMRPPRLPRPRPRPSEYPRP | 0.0493
73 | RRIRMRPPRLPRPRPRPSFRPRP | 0.142
74 | RRIRMRPPRLPRPRPRPSGEPRP | 0.824
75 | RRIRMRPPRLPRPRPRPSGWPRP | 0.934
76 | RRIRMRPPRLPRPRPRPSHNPRP | -0.194
77 | RRIRMRPPRLPRPRPRPSHRPRP | 0.254
78 | RRIRMRPPRLPRPRPRPSHWPRP | 0.0911
79 | RRIRMRPPRLPRPRPRPSKHPRP | 0.159
80 | RRIRMRPPRLPRPRPRPSLKPRP | 0.359
81 | RRIRMRPPRLPRPRPRPSLQPRP | 0.385
82 | RRIRMRPPRLPRPRPRPSMEPRP | 0.484
83 | RRIRMRPPRLPRPRPRPSMMPRP | 0.0163
84 | RRIRMRPPRLPRPRPRPSMQPRP | 0.345
85 | RRIRMRPPRLPRPRPRPSMVPRP | 0.0557
86 | RRIRMRPPRLPRPRPRPSMWPRP | 0.09
87 | RRIRMRPPRLPRPRPRPSPFPRP | 0.124
88 | RRIRMRPPRLPRPRPRPSQEPRP | 0.226

Row | Sequence | shrunken log2 fold change
89 | RRIRMRPPRLPRPRPRPSQQPRP | 0.463
90 | RRIRMRPPRLPRPRPRPSQVPRP | -0.0436
91 | RRIRMRPPRLPRPRPRPSRAPRP | 1.18
92 | RRIRMRPPRLPRPRPRPSTIPRP | -0.23
93 | RRIRMRPPRLPRPRPRPSVFPRP | -0.0403
94 | RRIRMRPPRLPRPRPRPSVMPRP | -0.194
95 | RRIRMRPPRLPRPRPRPSWMPRP | -0.0767
96 | RRIRMRPPRLPRPRPRPSYAPRP | -0.0187
97 | RRIRMRPPRLPRPRPRPSYCPRP | -0.236
98 | RRIRMRPPRLPRPRPRPSYTPRP | -0.38
99 | RRIRMRPPRLPRPRPRPTEKPRP | 1.36
100 | RRIRMRPPRLPRPRPRPTELPRP | 0.172
101 | RRIRMRPPRLPRPRPRPTGFPRP | 1.12
102 | RRIRMRPPRLPRPRPRPTGVPRP | 0.224
103 | RRIRMRPPRLPRPRPRPTHAPRP | 0.995
104 | RRIRMRPPRLPRPRPRPTHDPRP | 0.81
105 | RRIRMRPPRLPRPRPRPTHRPRP | 0.929
106 | RRIRMRPPRLPRPRPRPTILPRP | -0.0108
107 | RRIRMRPPRLPRPRPRPTINPRP | -0.109
108 | RRIRMRPPRLPRPRPRPTKYPRP | -0.152
109 | RRIRMRPPRLPRPRPRPTLCPRP | 0.122
